Laboratory results published in patent publication US20240158457A1 (MEDIKINE, published 2024).
Several values for one entry are separate records, joined by “and”; a condition that tells them apart may be missing. Identical values can stand only once. Like-named read-outs stand apart in the source and are kept apart here. Where no end group is shown, it is not given here.

B5: IL-18 Binding Protein (IL-18BP) Fc fusion (Fc fusion, not shown: a dimerising Fc or GST)
chain: TPVSQTTTAATASVRSTKDPCPSQPPVFPAAKQCPALEVTWPEVEVPLNGTLSLSCVACSRFPNFSILYWLGNGSFIEHLPGRLWEGSTSRERGSTGTQLCKALVLEQLTPALHSTNFSCVLVDPEQVVQRHVVLAQLWAGLRATLPPTQEALPSSHSSPQQQG

What was measured:
[1] = molecular target: T1, human IL-18 receptor (alpha and beta subunits) on HEK-BLUE IL-18 reporter cells (human, UniProt Q13478 19-541; O95256 20-599); test: cell-based or functional assay
T1 sequence (looked up) 1: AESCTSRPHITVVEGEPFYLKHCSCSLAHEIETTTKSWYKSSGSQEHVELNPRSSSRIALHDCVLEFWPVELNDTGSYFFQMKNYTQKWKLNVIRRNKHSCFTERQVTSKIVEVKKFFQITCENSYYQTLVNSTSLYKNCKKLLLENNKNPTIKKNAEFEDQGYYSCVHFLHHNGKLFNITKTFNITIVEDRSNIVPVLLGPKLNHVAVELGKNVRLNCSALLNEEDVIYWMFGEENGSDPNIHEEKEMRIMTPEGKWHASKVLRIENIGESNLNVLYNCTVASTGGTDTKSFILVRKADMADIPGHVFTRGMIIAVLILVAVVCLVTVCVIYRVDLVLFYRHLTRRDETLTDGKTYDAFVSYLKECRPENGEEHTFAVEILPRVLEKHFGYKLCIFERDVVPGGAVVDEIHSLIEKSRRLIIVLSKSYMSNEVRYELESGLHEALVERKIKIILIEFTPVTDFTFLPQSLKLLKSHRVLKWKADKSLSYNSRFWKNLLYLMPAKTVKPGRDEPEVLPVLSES
T1 sequence (looked up) 2: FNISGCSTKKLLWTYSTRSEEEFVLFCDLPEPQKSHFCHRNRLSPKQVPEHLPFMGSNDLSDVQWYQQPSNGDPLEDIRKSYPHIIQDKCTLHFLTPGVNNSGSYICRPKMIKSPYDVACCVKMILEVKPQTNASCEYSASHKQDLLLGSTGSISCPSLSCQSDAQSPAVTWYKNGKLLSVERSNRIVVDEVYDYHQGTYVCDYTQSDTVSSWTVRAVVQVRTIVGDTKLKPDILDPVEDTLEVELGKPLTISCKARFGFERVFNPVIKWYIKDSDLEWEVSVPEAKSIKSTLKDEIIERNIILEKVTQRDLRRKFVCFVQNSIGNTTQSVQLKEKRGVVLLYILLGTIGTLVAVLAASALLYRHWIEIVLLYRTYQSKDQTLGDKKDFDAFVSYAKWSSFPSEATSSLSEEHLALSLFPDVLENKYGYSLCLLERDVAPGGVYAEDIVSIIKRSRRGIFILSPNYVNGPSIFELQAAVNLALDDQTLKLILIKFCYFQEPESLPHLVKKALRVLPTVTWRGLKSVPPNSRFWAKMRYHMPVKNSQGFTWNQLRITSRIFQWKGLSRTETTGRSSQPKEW

[2] = molecular target: B5; test: direct binding ELISA; biotinylated peptide on NeutrAvidin, IL-18BP Fc titrated, anti-human IgG Fc-HRP
Protocol: Binding of synthetic monomer peptides to IL-18 Binding Protein (IL-18BP) was measured using a direct binding ELISA. Briefly, 96-well ELISA plates were coated with NeutrAvidin (NA) at 5 μg per well in PBS, washed, then blocked with PBS containing 1% BSA. Wells were washed and representative peptides, synthesized with a C-terminal biotin were diluted to 300 nM in assay buffer and added to the NA coated wells. Wells were washed and serial dilutions starting at 100 nM of IL-18R subunits, IL-18BP from either of two sources (Acro #ILP-H5253 and R&D #119-BP), and control IgG Fc fusions) were added to the wells and incubated for 1 hr at 4° C. Then plates were washed and goat anti-human IgG Fc-HRP (Southern Biotech #2048-05) detection antibody was added for 1 hr. Wells were developed with TMB for 5-15 min and the enzyme reaction was stopped with a H₂SO₄ solution.

[3] = molecular target: T2, Human recombinant IL-18 (R&D Systems #9124-IL-050/CF) (human, UniProt Q14116 1-193); test: cell-based or functional assay
T2 sequence: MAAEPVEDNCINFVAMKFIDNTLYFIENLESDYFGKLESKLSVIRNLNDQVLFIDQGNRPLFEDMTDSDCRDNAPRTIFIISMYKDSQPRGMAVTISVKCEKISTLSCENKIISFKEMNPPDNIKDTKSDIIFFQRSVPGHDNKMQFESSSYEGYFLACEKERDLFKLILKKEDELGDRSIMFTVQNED

[4] = molecular target: T1, human IL-18 receptor (alpha and beta …); test: cell-based or functional assay; remark: listed apart in the source

B1: Dimer 1 (designed binder)
chain: GGCPNWLSDHLSEIWCPAPAPAPAPAPAPAPAICWVPFHYLDELMCTGG
modifications: not fully specified; cysteine pairing not given here; also: linker of formula V (drawing, may hold non-peptide parts) between beta and alpha moieties
[1]
  efficacy (% maximum signal (Emax) vs. IL-18 in reporter assay): 17%
  potency (EC50), HEK-BLUE IL-18 reporter assay (SEAP): < 1000 nM

B2: biotinylated beta family 2 synthetic construct (peptide)
peptide: GGLCWYFGGTVRGPCLGG-biotin
modifications: cysteine pairing not given here
notes: also called bn-beta family 2 synthetic construct
[2]
  binding result: no binding (tested: 100 nM)

B3: biotinylated alpha synthetic F1a Consensus Construct (peptide)
peptide: GGELCWRPFSFVDCEEGG-biotin
modifications: cysteine pairing not given here
notes: also called bn-alpha synthetic F1a Consensus Construct; alpha synthetic F1 peptide, C-terminal biotinylated form
[2]
  binding result: no binding (tested: 100 nM)

B4: Dimer 2 (designed binder)
chain: GGCPNWLSDHLSEIWCPAPAPAPAPAPAPAPAFFECFYSPGHEWCIPSGG
modifications: not fully specified; cysteine pairing not given here; also: linker of formula V (drawing, may hold non-peptide parts) between beta and alpha moieties
[1]
  efficacy (% maximum signal (Emax) vs. IL-18 in reporter assay): 34%
  potency (EC50), HEK-BLUE IL-18 reporter assay (SEAP): > 100 nM and < 300 nM

## GGCPNWLSDHLSEIWCGG-biotin (cysteine pairing not given here) [C-terminally biotinylated form of peptide 5C09]
[2]
  binding result: no binding (tested: 100 nM)

## B5
[3]
  IC50, inhibition of IL-18 bioactivity in HEK-BLUE IL-18 reporter assay: ~1 nM

B6: Dimer 3 (designed binder)
chain: GGLCWYFGGTVRGPCLPAPAPAPAPAPAPAPAFFECFYSPGHEWCIPSGG
modifications: not fully specified; cysteine pairing not given here; also: linker of formula V (drawing, may hold non-peptide parts) between beta and alpha moieties
[1]
  efficacy (% maximum signal (Emax) vs. IL-18 in reporter assay): 36%
  potency (EC50), HEK-BLUE IL-18 reporter assay (SEAP): < 30 nM
[4]
  potency (EC50), HEK-BLUE IL-18 reporter assay (SEAP): < 10 nM

## GGICWVPFHYLDELMCTGG-biotin (cysteine pairing not given here, also called bn4D07) [biotinylated 4D07]
[2]
  binding result: no binding (tested: 100 nM)

## GGFFECFYSPGHEWCIPSGG-biotin (cysteine pairing not given here, also called bn7C06) [biotinylated 7C06]
[2]
  binding result: no binding (tested: 100 nM)
